Tests used:
[1] = molecular target: T1, human B7H3 antigen for screening and detection, 2Ig-B7H3 (R&D cat#1949-B3-050/CF) (human, UniProt Q5ZPR3 29-245); assay: ELISA, antigen coated at 1 ug/ml, HRP anti-human IgG Fc detection
T1 construct: Commercial product; also called human 2Ig-B7H3
T1 sequence: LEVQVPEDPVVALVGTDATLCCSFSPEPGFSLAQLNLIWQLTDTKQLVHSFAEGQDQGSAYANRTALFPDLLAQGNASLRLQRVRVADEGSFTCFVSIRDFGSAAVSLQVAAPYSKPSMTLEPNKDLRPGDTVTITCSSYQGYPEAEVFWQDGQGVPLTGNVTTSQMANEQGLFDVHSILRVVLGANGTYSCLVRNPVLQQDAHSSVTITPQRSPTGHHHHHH

[2] = molecular target: T2, human B7H3 antigen for detection, 4Ig-B7H3 (SinoBiological cat#11188-H08H) (human, UniProt Q5ZPR3 29-461); assay: as above
T2 construct: Commercial product; also called human 4Ig-B7H3
T2 sequence: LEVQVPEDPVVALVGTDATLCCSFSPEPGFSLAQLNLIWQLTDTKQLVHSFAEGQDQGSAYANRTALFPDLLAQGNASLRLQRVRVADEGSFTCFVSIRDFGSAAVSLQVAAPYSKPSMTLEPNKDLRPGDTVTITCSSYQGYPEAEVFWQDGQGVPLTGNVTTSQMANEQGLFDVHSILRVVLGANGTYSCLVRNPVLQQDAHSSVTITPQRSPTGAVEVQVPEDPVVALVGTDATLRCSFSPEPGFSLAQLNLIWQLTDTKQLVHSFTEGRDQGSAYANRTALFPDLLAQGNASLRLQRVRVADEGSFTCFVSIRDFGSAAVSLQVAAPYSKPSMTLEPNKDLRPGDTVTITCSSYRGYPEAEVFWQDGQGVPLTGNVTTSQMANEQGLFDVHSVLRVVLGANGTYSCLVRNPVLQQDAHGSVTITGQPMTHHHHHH

[3] = molecular target: T3, murine B7H3 antigen for screening and detection (R&D cat#1397-B3-050/CF) (mouse, UniProt Q8VE98 29-244); assay: ELISA, mouse B7H3 coated at 1 ug/ml, HRP anti-human IgG Fc detection
T3 construct: Commercial product; also called mouse B7H3
T3 sequence: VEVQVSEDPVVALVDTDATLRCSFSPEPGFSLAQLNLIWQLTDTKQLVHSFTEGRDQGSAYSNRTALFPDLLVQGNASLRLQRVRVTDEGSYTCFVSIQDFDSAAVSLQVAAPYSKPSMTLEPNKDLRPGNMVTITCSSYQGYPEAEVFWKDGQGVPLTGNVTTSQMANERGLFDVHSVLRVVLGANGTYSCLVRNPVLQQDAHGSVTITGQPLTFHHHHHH

[4] = molecular target: T1, human B7H3 antigen for screening and …; assay: SPR (Biacore T200), ADC captured on Protein A chip, antigen in flow, 1:1 Langmuir fit (column of the single value inferred)
[5] = molecular target: T1, human B7H3 antigen for screening and …; assay: SPR (Biacore T200), ADC captured on Protein A chip, antigen in flow, 1:1 Langmuir fit
[6] = molecular target: T1, human B7H3 antigen for screening and …; assay: SPR (Biacore T200), antibody captured on Protein A chip, antigen in flow, 1:1 Langmuir fit
[7] = molecular target: T2, human B7H3 antigen for detection, …; assay: as above
[8] = molecular target: T2, human B7H3 antigen for detection, …; assay: SPR (Biacore T200), ADC captured on Protein A chip, antigen in flow, 1:1 Langmuir fit
[9] = molecular target: T2, human B7H3 antigen for detection, …; assay: ELISA, antigen coated at 1 ug/ml, HRP anti-human IgG Fc detection (column of the single value not certain)
[10] = molecular target: T2, human B7H3 antigen for detection, …; assay: SPR (Biacore T200), ADC captured on Protein A chip, antigen in flow, 1:1 Langmuir fit (column of the single value inferred)

B1: B7H3-h1703-L2-MC-MMAF (antibody-drug conjugate of h1703 with MC-MMAF) (antibody, human IgG1, kappa, V domains shown)
VH: QVQLQESGGGLVQPGGSLRLSCAASGFTFSSYAMSWVRQAPGKGLEWVSAISGSGGSTYYADSVKGRYTISRDNSKNTLYLQMNSLRAEDTAVYYCAKGVGPVHALDVWGQGTTVTVSS
VL: DIRLTQSPSSLSASVGDRVTITCRASQSISTYLNWYQQKPGKAPILLINAVSGLQSGVPSRFSGSGSGTHFTLTITSLQPEDFATYYCQQSYSTPMWTFGQGTKVEIKR
modifications: MC-MMAF coupled through a propylthiol linker (L2) to lysine residues of the antibody; positions not given; average y = 2.29 per antibody
notes: also called h1703-MMAF
- EC50 [1]: 2.36 nM
- EC50 [2]: 3.08 nM
- EC50 [3]: 116 nM
- Kd [4]: 193 nM

B2: B7H3-h1703-L2-3024 (antibody-drug conjugate of h1703 with drug-linker 3024) (antibody, human IgG1, kappa, V domains shown)
VH: QVQLQESGGGLVQPGGSLRLSCAASGFTFSSYAMSWVRQAPGKGLEWVSAISGSGGSTYYADSVKGRYTISRDNSKNTLYLQMNSLRAEDTAVYYCAKGVGPVHALDVWGQGTTVTVSS
VL: DIRLTQSPSSLSASVGDRVTITCRASQSISTYLNWYQQKPGKAPILLINAVSGLQSGVPSRFSGSGSGTHFTLTITSLQPEDFATYYCQQSYSTPMWTFGQGTKVEIKR
modifications: drug-linker 3024 coupled through a propylthiol linker (L2) to lysine residues of the antibody; positions not given; average y = 1.62 per antibody
notes: also called h1703-3024
- EC50 [1]: 15.1 nM
- EC50 [2]: 4.97 nM
- EC50 [3]: 115 nM
- Kd [5]: 219 nM

B3: h1703 antibody (fully human anti-B7H3 full-length antibody) (antibody, human IgG1, kappa, V domains shown)
VH: QVQLQESGGGLVQPGGSLRLSCAASGFTFSSYAMSWVRQAPGKGLEWVSAISGSGGSTYYADSVKGRYTISRDNSKNTLYLQMNSLRAEDTAVYYCAKGVGPVHALDVWGQGTTVTVSS
VL: DIRLTQSPSSLSASVGDRVTITCRASQSISTYLNWYQQKPGKAPILLINAVSGLQSGVPSRFSGSGSGTHFTLTITSLQPEDFATYYCQQSYSTPMWTFGQGTKVEIKR
notes: IgG1 heavy chain, kappa light chain; naked antibody; also called B7H3-h1703
- EC50 [1]: 10.3 nM
- EC50 [2]: 2.1 nM
- EC50 [3]: 86.7 nM
- Kd [6]: 448 nM

B4: h1702 antibody (fully human anti-B7H3 full-length antibody) (antibody, human IgG1, lambda)
heavy: not shown
light: QTVVTQEPSFSVSPGGTVTLTCGLSSGSVSTSHYPSWYQQTPGQAPRMLIYNTNTRSSGVPDRFSGSILGNKAALTITGAQADDESDYYCAIHVDRDIWVFGGGTKLTVLGQPKANPTVTLFPPSSEELQANKATLVCLISDFYPGAVTVAWKADGSPVKAGVETTKPSKQSNNKYAASSYLSLTPEQWKSHRSYSCQVTHEGSTVEKTVAPTECS
notes: IgG1 heavy chain, lambda light chain; naked antibody expressed in HEK293E cells; also called B7H3-h1702
- EC50 [1]: 0.11 nM
- EC50 [2]: 0.16 nM
- EC50 [3]: 18.1 nM
- Kd [6]: 797 nM
- Kd [7]: 8.55 nM

B5: B7H3-h1702-L2-MC-MMAF (antibody-drug conjugate of h1702 with MC-MMAF) (antibody, human IgG1, lambda)
heavy: not shown
light: QTVVTQEPSFSVSPGGTVTLTCGLSSGSVSTSHYPSWYQQTPGQAPRMLIYNTNTRSSGVPDRFSGSILGNKAALTITGAQADDESDYYCAIHVDRDIWVFGGGTKLTVLGQPKANPTVTLFPPSSEELQANKATLVCLISDFYPGAVTVAWKADGSPVKAGVETTKPSKQSNNKYAASSYLSLTPEQWKSHRSYSCQVTHEGSTVEKTVAPTECS
modifications: MC-MMAF coupled through a propylthiol linker (L2) to lysine residues of the antibody; positions not given; average y = 1.76 per antibody
notes: also called h1702-MMAF
- EC50 [1]: 0.16 nM
- EC50 [2]: 0.18 nM
- EC50 [3]: 59 nM
- Kd [4]: 452 nM

B6: B7H3-h1702-L2-3024 (antibody-drug conjugate of h1702 with drug-linker 3024) (antibody, human IgG1, lambda)
heavy: not shown
light: QTVVTQEPSFSVSPGGTVTLTCGLSSGSVSTSHYPSWYQQTPGQAPRMLIYNTNTRSSGVPDRFSGSILGNKAALTITGAQADDESDYYCAIHVDRDIWVFGGGTKLTVLGQPKANPTVTLFPPSSEELQANKATLVCLISDFYPGAVTVAWKADGSPVKAGVETTKPSKQSNNKYAASSYLSLTPEQWKSHRSYSCQVTHEGSTVEKTVAPTECS
modifications: drug-linker 3024 coupled through a propylthiol linker (L2) to lysine residues of the antibody; positions not given; average y = 2.05 per antibody
notes: also called h1702-3024
- EC50 [1]: 0.17 nM
- EC50 [2]: 0.26 nM
- EC50 [3]: 131 nM
- Kd [5]: 580 nM
- Kd [8]: 10.5 nM

B7: B7H3-h1702-cys-3024 (antibody-drug conjugate of h1702 with drug-linker 3024 on cysteines) (antibody, human IgG1, lambda)
heavy: not shown
light: QTVVTQEPSFSVSPGGTVTLTCGLSSGSVSTSHYPSWYQQTPGQAPRMLIYNTNTRSSGVPDRFSGSILGNKAALTITGAQADDESDYYCAIHVDRDIWVFGGGTKLTVLGQPKANPTVTLFPPSSEELQANKATLVCLISDFYPGAVTVAWKADGSPVKAGVETTKPSKQSNNKYAASSYLSLTPEQWKSHRSYSCQVTHEGSTVEKTVAPTECS
modifications: drug-linker 3024 on cysteine thiols after TCEP reduction; positions not given; average y = 3.5 per antibody
- EC50 [9]: 0.29 nM
- Kd [10]: 11.2 nM

B8: B7H3-h1704-3-cys-3024 (antibody-drug conjugate of humanized h1704-3 with drug-linker 3024 on cysteines) (antibody, human IgG1, kappa, V domains shown)
VH: EVQLVESGGGLVKPGGSLRLSCAASGFTFSRYGMSWVRQAPGKGLEWVSAISSGGGSIYYPDTVKGRLTISRDNAKNTLYLQMNSLRAEDTAVYYCTRHYLLFEMDYWGQGTTVTVSS
VL: DIVLTQSPSFLSASVGDRVTITCKASQNVNTAVAWYQQKPGKAPKLLIFSASNRYTGVPSRFSGSGSGTDFTLTISSLQPEDVAAYFCQQYSSSLTFGGGTKLEIKR
modifications: drug-linker 3024 on cysteine thiols after TCEP reduction; positions not given; average y = 3.4 per antibody
notes: Antibody-drug conjugate made from antibody h1704-3 (IgG1, kappa)
- EC50 [9]: 0.09 nM
- Kd [10]: 0.778 nM

B9: B7H3-h1702DS-cys-3024 (antibody-drug conjugate of h1702-DS with drug-linker 3024 on cysteines) (antibody, human IgG1, lambda)
heavy: not shown
light: DTVVTQEPSFSVSPGGTVTLTCGLSSGSVSTSHYPSWYQQTPGQAPRMLIYNTNTRSSGVPDRFSGSILGNKAALTITGAQADDESDYYCAIHVDRDIWVFGGGTKLTVLGQPKANPTVTLFPPSSEELQANKATLVCLISDFYPGAVTVAWKADGSPVKAGVETTKPSKQSNNKYAASSYLSLTPEQWKSHRSYSCQVTHEGSTVEKTVAPTEC
modifications: drug-linker 3024 on cysteine thiols after TCEP reduction; positions not given; average y = 3.55 per antibody
- EC50 [9]: 0.3 nM
- Kd [10]: 10.6 nM

— WO2019024911A1 (dated 2019)
